This is an account of results in patent US20150368625A1 (MIT, published 2015).

This test has as its target T1, Core fragment with 601 split + SZ17 (Bacteriophage T7, UniProt P00573 1-601).
T1 construct: Expressed constitutively in cells from a single copy plasmid, not purified; also called conserved fragment; 1-601 fragment
Kind of test: reporter assay in cells: core at a constant level, sigma-like fragment induced, promoter->sfgfp read by flow cytometry. The method, then:
Cells containing the three test plasmids (constitutive expression of core, promoter->sfgfp reporter, and pTac->sigma-like fragment) were inoculated into 0.5 mL LB+antibiotics and grown to saturation overnight. The overnight cultures were diluted 1:200 into 0.15 mL LB+antibiotics+100 μM IPTG and grown at 37° C., 1000 rpm for 6 hours. The fluorescence of the cells was quantified using a flow cytometer (FIG. 8). The assay was performed on three separate days, with three technical replicates per day. Data shown is the average value over all three days, with error bars representing the standard deviation between the mean values on each day.
On the technique in general: A reporter such as luciferase makes a cellular process visible.

T1 sequence (P00573 1-601, tags or fused parts left off): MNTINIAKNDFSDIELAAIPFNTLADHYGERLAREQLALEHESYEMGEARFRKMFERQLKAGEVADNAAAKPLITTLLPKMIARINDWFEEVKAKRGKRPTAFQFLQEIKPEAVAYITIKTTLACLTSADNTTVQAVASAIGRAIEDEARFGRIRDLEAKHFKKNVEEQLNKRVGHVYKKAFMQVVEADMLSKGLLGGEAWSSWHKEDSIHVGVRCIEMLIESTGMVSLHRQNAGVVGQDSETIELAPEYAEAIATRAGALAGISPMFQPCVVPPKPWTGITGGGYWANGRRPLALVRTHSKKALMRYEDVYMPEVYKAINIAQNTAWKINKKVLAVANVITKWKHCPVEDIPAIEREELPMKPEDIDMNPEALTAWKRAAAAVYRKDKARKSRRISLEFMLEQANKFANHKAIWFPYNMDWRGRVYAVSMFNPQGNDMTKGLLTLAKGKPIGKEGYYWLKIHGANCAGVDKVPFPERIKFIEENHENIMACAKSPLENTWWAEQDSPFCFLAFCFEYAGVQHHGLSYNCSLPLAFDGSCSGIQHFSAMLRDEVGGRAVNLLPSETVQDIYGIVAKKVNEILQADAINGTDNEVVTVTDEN

B1: T7 sigma-like fragment with 601 split + SZ18 (other)
chain: MSIAATLENDLARLENENARLEKDIANLERDLAKLEREEAYFGGSGGKNTGEISEKVKLGTKALAGQWLAYGVTRSVTKSSVMTLAYGSKEFGFRQQVLEDTIQPAIDSGKGLMFTQPNQAAGYMAKLIWESVSVTVVAAVEAMNWLKSAAKLLAAEVKDKKTGEILRKRCAVHWVTPDGFPVWQEYKKPIQTRLNLMFLGQFRLQPTINTNKDSEIDAHKQESGIAPNFVHSQDGSHLRKTVVWAHEKYGIESFALIHDSFGTIPADAANLFKAVRETMVDTYESCDVLADFYDQFADQLHESQLDKMPALPAKGNLNLRDILESDFAFA
notes: also called T7 fragment; variable fragment
For B1, the binding result is on record as “binds”.

B2: T3 sigma-like fragment with 601 split + SZ18 (other)
chain: MSIAATLENDLARLENENARLEKDIANLERDLAKLEREEAYFGGSGGKNTGEISEKVKLGTKALAGQWLAYGVTRSVTKRSVMTLAYGSKEFGFRQQVLEDTIQPAIDSGKGLMFTQPNQAAGYMAKLIWESVSVTVVAAVEAMNWLKSAAKLLAAEVKDKKTGEILRKRCAVHWVTPDGFPVWQEYKKPIQKRLDMIFLGQFRLQPTINTNKDSEIDAHKQESGIAPNFVHSQDGSHLRKTVVWAHEKYGIESFALIHDSFGTIPADAANLFKAVRETMVDTYESCDVLADFYDQFADQLHESQLDKMPALPAKGNLNLRDILESDFAFA
notes: also called T3 fragment; T3 sigma factor
With B2, the binding result is on record as “binds”.

B3: K1FR sigma-like fragment with 601 split + SZ18 (other)
chain: MSIAATLENDLARLENENARLEKDIANLERDLAKLEREEAYFGGSGGKNTGEISEKVKLGTKALAGQWLAYGVTRSVTKRSVMTLAYGSKEFGFRQQVLEDTIQPAIDSGKGLMFTQPNQAAGYMAKLIWESVSVTVVAAVEAMNWLKSAAKLLAAEVKDKKTGEILRKRCAVHWVTPDGFPVWQEYKKPIQTRLNLRFLGSFNLQPTVNTNKDSEIDAHKQESGIAPNFVHSQDGSHLRKTVVWAHEKYGIESFALIHDSFGTIPADAANLFKAVRETMVDTYESCDVLADFYDQFADQLHESQLDKMPALPAKGNLNLRDILESDFAFA
Consider B3, for which the binding result is on record as “binds”.
